Assay results reported in article PMC7677223 (Nature microbiology, 2020).

B1: VZV small capsid protein (SCP) pORF23 (natural protein)
chain: MTQPASSRVVFDPSNPTTFSVEAIAAYTPVALIRLLNASGPLQPGHRVDIADARSIYTVGAAASAARARANHNANTIRRTAMFAETDPMTWLRPTVGLKRTFNPRIIRPQPPNPSMSLGISGPTILPQKTQSADQSALQQPAALAFSGSSPQHPPPQTTSASVGQQQHVVSGSSGQQPQQGAQSSTVQPTTGSPPAAQGVPQSTPPPTQNTPQGGKGQTLSHTGQSGNASRSRRV

Legend:
[1] = target: VZV capsid (MCP pORF40, SCP pORF23, Tri1 pORF20, Tri2 pORF41) (varicella-zoster virus (P-Oka strain)) (UniProt P09245); assay: cryo-EM structure
Sequence of VZV capsid (MCP pORF40, SCP pORF23, Tri1 pORF20, Tri2 pORF41) (varicella-zoster virus (P-Oka strain)) (P09245 whole entry, looked up): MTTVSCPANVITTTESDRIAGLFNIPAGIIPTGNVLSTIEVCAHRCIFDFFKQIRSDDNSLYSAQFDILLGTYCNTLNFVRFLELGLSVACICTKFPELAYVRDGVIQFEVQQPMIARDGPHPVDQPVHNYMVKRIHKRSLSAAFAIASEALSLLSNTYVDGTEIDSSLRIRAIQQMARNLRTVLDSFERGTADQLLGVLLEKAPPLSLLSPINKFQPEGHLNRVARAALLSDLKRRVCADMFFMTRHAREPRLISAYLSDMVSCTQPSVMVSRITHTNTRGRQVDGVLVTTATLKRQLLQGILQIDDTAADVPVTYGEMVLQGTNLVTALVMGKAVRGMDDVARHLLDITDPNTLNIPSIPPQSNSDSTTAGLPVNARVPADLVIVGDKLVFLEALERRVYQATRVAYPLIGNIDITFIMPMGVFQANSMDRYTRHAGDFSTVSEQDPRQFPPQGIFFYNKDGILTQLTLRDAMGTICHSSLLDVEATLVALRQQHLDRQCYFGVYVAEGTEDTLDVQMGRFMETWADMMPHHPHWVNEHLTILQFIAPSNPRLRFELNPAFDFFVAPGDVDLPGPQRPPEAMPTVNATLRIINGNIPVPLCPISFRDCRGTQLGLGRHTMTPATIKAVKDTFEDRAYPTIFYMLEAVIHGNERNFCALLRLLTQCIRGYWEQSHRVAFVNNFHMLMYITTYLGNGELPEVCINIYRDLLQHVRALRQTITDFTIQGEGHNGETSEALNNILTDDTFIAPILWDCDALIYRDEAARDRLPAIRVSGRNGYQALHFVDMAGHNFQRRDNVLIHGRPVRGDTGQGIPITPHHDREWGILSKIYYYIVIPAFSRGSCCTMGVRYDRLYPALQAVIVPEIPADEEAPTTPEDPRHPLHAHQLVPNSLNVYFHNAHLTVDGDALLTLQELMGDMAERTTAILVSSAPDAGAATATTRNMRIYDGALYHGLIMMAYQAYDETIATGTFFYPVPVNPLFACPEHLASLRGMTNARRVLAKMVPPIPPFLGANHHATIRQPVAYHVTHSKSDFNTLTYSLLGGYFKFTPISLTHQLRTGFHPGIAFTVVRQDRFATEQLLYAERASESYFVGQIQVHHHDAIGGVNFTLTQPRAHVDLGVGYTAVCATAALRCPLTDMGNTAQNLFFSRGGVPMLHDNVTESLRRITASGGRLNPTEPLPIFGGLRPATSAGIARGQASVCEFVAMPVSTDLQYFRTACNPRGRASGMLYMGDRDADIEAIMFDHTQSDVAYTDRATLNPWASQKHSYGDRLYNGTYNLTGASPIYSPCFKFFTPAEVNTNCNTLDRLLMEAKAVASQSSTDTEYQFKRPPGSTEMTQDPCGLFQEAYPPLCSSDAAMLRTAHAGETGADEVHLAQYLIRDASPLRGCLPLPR

cryo-EM structure = target: the molecule itself; assay: cryo-EM structure

Row | Molecule | percent of pentons bound with CATCs [1] [%] | stoichiometry N (cryo-EM structure)
1 | VZV capsid-associated tegument complex (CATC) | 50.5 | –
2 | B1 | – | 6
